± gives the standard deviation of the averaged measurements.
These sequences were tested on ATP (assay: switch fluorescence ratio, 500 uM ATP over buffer (Cy3 cluster intensity, sum of 5 cycles each) (fold (ratio)); higher = stronger signal-on switching upon ATP binding; sequences stand for … in TCGTCGGCAGCGTCAGATGTGTATAAGAGACAGTTTTTTTTTTTTTTTTTTTTTTTTT…TC). Settings: aptamer strand: ATP DNA aptamer (quencher-CACCTGGGGGAGTATTGCGGAGGAAGG + anchor), 100 nM annealed; ATP concentration: 500 uM.
Procedure, shortened: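 Clusters carrying Cy3-labelled switching strands on a modified Illumina MiSeq flow-cell were annealed to 100 nM quencher-labelled ATP aptamer and imaged in selection buffer. They were imaged again after 15 min with 500 uM ATP at 22 °C, over five buffer/ATP cycles with NaOH stripping and re-annealing in between. For each cluster, the fluorescence ratio is the summed Cy3 intensity of the target cycles divided by that of the buffer cycles, averaged per switch-domain sequence. Clusters outside 100-1000 RFU were left out.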
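Note: ATP exposure 15 min at 22 °C before imaging.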

| Sequence | switch fluorescence ratio |
| --- | --- |
| GGGAAAGTAT | 0.982 ± 0.032 |
| ATTGTGCAGG | 0.998 ± 0.0025 |
| TTACGGTGCC | 0.987 ± 0.03 |
| TTTTTAACGT | 1.02 ± 0.027 |
| CGAGGAGGGC | 0.974 ± 0.019 |
| TGAGGCTATG | 1 ± 0.021 |
| TGGGATCAAG | 1 ± 0.032 |
| TAGTGGGTGG | 0.989 ± 0.01 |
| TTATGATCAG | 0.9912 ± 0.0038 |
| TTTTAAGCCG | 1.01 ± 0.069 |
| TCGAAGAATG | 1.005 ± 0.002 |
| CTGCTTGGGA | 1.012 ± 0.0033 |
| CGGGTATGCC | 0.96 ± 0.0098 |
| CCTGGTACTG | 1.05 ± 0.015 |
| TGCTCGGGAC | 1.09 ± 0.047 |
| TTGGTTATTT | 1 ± 0.045 |
| TGCATTTTAC | 1.28 ± 0.082 |
| AATACGGGGG | 1.03 ± 0.13 |
| ATGTTGTCAG | 0.987 ± 0.027 |
| CTGGGACGTG | 0.967 ± 0.028 |
| GAGAGCCACC | 0.971 ± 0.061 |
| TTATTCGTCC | 1.04 ± 0.058 |
| GTTGGAATGT | 1.03 ± 0.018 |

| Sequence | switch fluorescence ratio |
| --- | --- |
| CAACTAAGTT | 0.988 ± 0.036 |
| ATCAGTTAAT | 0.996 ± 0.032 |
| GGAAGTAAAA | 1.03 ± 0.076 |
| TAAAAATGTT | 0.988 ± 0.021 |
| CTGGCACTGG | 1.016 ± 0.0056 |
| CACATTATTC | 1.04 ± 0.033 |
| CCCGGGGTCT | 1.02 ± 0.026 |
| CGAGATATGT | 1.002 ± 0.0038 |
| AAGGTTTTGC | 0.99 ± 0.058 |
| TGTCGGCTGG | 1.02 ± 0.052 |
| AAGCTGGTGT | 1.014 ± 0.0075 |
| ATTTGCGGGC | 1.07 ± 0.11 |
| TTAACCAGTC | 1.04 ± 0.022 |
| CCTGGGGTAA | 1.09 ± 0.039 |
| GTGCAAATTG | 0.997 ± 0.024 |
| TTTGGCTGTG | 0.973 ± 0.029 |
| TTTTACAAGT | 0.982 ± 0.03 |
| CTATGAGTGA | 1.01 ± 0.018 |
| TTGTGCGTAG | 0.991 ± 0.047 |
| GATTATCAGA | 0.988 ± 0.027 |
| CATGGGAGTT | 0.978 ± 0.025 |
| ATTTTTGGTG | 1.06 ± 0.064 |
| ATAAGTTAAG | 0.999 ± 0.013 |

| Sequence | switch fluorescence ratio |
| --- | --- |
| GATTTTTGGC | 0.9945 ± 0.0087 |
| TATGTAAGGG | 1.01 ± 0.026 |
| TCTATAAGTT | 1.02 ± 0.044 |
| TGAATATGCG | 0.988 ± 0.0096 |
| AGGGAGTTTT | 1.01 ± 0.026 |
| TGGTTAAGGA | 1 ± 0.013 |
| ATTTGACTTT | 1.04 ± 0.031 |
| TTATTAAATG | 0.998 ± 0.013 |
| GATTAGATGT | 0.9917 ± 0.0067 |
| ACAAATGGCA | 1.07 ± 0.037 |
| ATTCGAGAAG | 0.997 ± 0.018 |
| GAATTTTAGG | 0.9889 ± 0.0096 |
| TCAGGATGGA | 1 ± 0.018 |
| TCGGACCCTA | 1.03 ± 0.041 |
| GGGGTTTTCG | 1.01 ± 0.029 |
| ATTTACTTCT | 1.04 ± 0.015 |
| AGTAGCGTCG | 0.985 ± 0.048 |
| GGTTCGTATA | 1.01 ± 0.017 |
| CCCATACTGA | 1.11 ± 0.036 |
| TATAACGGTT | 1.034 ± 0.0074 |
| AAAGAATTTC | 0.981 ± 0.038 |
| CTAGTGACTA | 0.987 ± 0.032 |
| GACTTAGTGC | 1.05 ± 0.012 |

| Sequence | switch fluorescence ratio |
| --- | --- |
| AAGAGGGGTA | 0.999 ± 0.018 |
| TTTCACGAAT | 0.993 ± 0.015 |
| TGCAGTGGTT | 1.01 ± 0.03 |
| GGGCTTTAAG | 1.03 ± 0.04 |
| CGATTATTTC | 0.983 ± 0.0096 |
| TAACGTTTTC | 0.983 ± 0.06 |
| CGATACGATT | 1.06 ± 0.076 |
| TTTACGGGTT | 0.988 ± 0.021 |
| AGGGGGGAGC | 1.01 ± 0.029 |
| AGCCGTATGA | 1.013 ± 0.0087 |
| TGTGAGTTGG | 1 ± 0.029 |
| TATATCGGGT | 0.9968 ± 0.0072 |
| GGGCGGCCTA | 0.999 ± 0.021 |
| GCGTGAGGTG | 1.01 ± 0.048 |
| GGGGTAGGAG | 1.03 ± 0.093 |
| GTCGTAGGGG | 1.03 ± 0.018 |
| GCCACATTTT | 0.945 ± 0.01 |
| GATTTAAAAT | 1.013 ± 0.0083 |
| CGGCGGGGGA | 1.04 ± 0.043 |
| CATCGGTCTT | 0.958 ± 0.039 |
| TTTGTGGACG | 1.08 ± 0.08 |
| TTTAACCGTC | 1.06 ± 0.052 |
| GGCAAAAACG | 1.16 ± 0.22 |

| Sequence | switch fluorescence ratio |
| --- | --- |
| GGGGAAAACG | 0.989 ± 0.015 |
| TTAAGATAGG | 1.01 ± 0.025 |
| TCATATTATT | 1 ± 0.033 |
| CATTATAGCG | 0.991 ± 0.023 |
| TTTATTTGG | 1.09 ± 0.12 |
| GCTATTTTTC | 1 ± 0.042 |
| GTTTACATTG | 0.985 ± 0.042 |
| GGTGGTTTTG | 0.985 ± 0.037 |
| TTCGTTTATT | 1.01 ± 0.046 |
| ATTTTTCTCG | 0.96 ± 0.041 |
| AGGTGCCAGG | 1.07 ± 0.036 |
| AAATGAAAAC | 0.98 ± 0.037 |
| CGGGATATCG | 1.01 ± 0.029 |
| GGTGCGGGTG | 1.03 ± 0.051 |
| TATGCGGCTT | 0.988 ± 0.04 |
| ATGTGGAGAT | 0.977 ± 0.059 |
| TCACAGTTGG | 1.032 ± 0.0034 |
| TTTGCCCCTT | 1.02 ± 0.03 |
| AGAAGATCTA | 0.9942 ± 0.0081 |
| GAGCCGTATT | 1.02 ± 0.093 |
| TCGTTATTTT | 1.04 ± 0.052 |
| TTATGATTCA | 0.973 ± 0.022 |
| CATTTTTTAG | 1.01 ± 0.016 |

| Sequence | switch fluorescence ratio |
| --- | --- |
| ACTGAGGATG | 1.06 ± 0.0063 |
| AATGGGTGAA | 0.97511 ± 0.00091 |
| ATCTGTGATG | 0.987 ± 0.024 |
| CGGTTAGGCT | 1.06 ± 0.012 |
| AGTCATCGGC | 1.01 ± 0.056 |
| ATATATGTTT | 0.9649 ± 0.0016 |
| GTGGTAAGTT | 0.942 ± 0.026 |
| GGGTAATGAG | 1 ± 0.022 |
| CTAGACAGGG | 1.028 ± 0.0022 |
| GATTAACGTT | 0.971 ± 0.036 |
| TCAAACAGGG | 1.04 ± 0.051 |
| GGGTTTACTA | 0.9552 ± 0.0018 |
| TTTGTTTTAT | 1 ± 0.034 |
| TGCCGGGGGG | 0.99 ± 0.011 |
| ACATGAGGTG | 1.18 ± 0.064 |
| ATTCAAGTT | 0.999 ± 0.034 |
| TTAAAATATA | 0.984 ± 0.059 |
| CCAGGTAGCA | 1.27 ± 0.12 |
| CGTAGCTTAG | 1.25 ± 0.13 |
| TTAGCCGGGT | 0.9802 ± 0.0028 |
| TTAATGATGG | 1.012 ± 0.0075 |
| ATATGGAGTT | 0.943 ± 0.022 |
| TTTTCGCTTT | 1.09 ± 0.17 |

| Sequence | switch fluorescence ratio |
| --- | --- |
| TTTGTACGCA | 1.71 ± 1 |
| ATTGATATCC | 0.987 ± 0.043 |
| TATACTACGG | 1.09 ± 0.024 |
| TTTTTCTACG | 1.2 ± 0.28 |
| AATGAAGTTT | 1.43 ± 0.7 |
| GGATTGTGTT | 0.985 ± 0.0018 |
| ATTTGAAGTT | 0.975 ± 0.043 |
| TTATAAAGCG | 1.054 ± 0.0028 |
| CGGCTCAACT | 1.01 ± 0.022 |
| TGGTGTACTT | 1.01 ± 0.012 |
| ACGGATATGG | 0.98 ± 0.011 |
| TTAAGTCTTC | 0.964 ± 0.039 |
| TATTTGTGTT | 0.997 ± 0.016 |
| GTAAAGGGGG | 0.998 ± 0.023 |
| TCGACGTCTC | 1.29 ± 0.16 |
| GATGTGGGGT | 0.987 ± 0.012 |
| GAGGATTAGC | 0.99 ± 0.036 |
| TTGCATTTAA | 1.0047 ± 0.00053 |
| ATATCTCCGG | 1.07 ± 0.014 |
